Data set [1] can be described thus: GSH/GSSG-Glo luminescence assay. The following applies: glycan lost; control: Skl (wild type).
Data set [2] can be described thus: DHE staining, flow cytometry, HEK293. To be noted: glycan lost; control: Skl (wild type).

B1: short-form Klotho (Skl): Skl3N (protein)
parent chain: MLARAPPRRPPRLVLLRLLLLHLLLLALRARCLSAEPGQGAQTWARFARAPAPEAAGLLHDTFPDGFLWAVGSAAYQTEGGWRQHGKGASIWDTFTHHSGAAPSDSPIVVAPSGAPSPPLSSTGDVASDSYNNVYRDTEGLRELGVTHYRFSISWARVLPNGTAGTPNREGLRYYRRLLERLRELGVQPVVTLYHWDLPQRLQDTYGGWANRALADHFRDYAELCFRHFGGQVKYWITIDNPYVVAWHGYATGRLAPGVRGSSRLGYLVAHNLLLAHAKVWHLYNTSFRPTQGGRVSIALSSHWINPRRMTDYNIRECQKSLDFVLGWFAKPIFIDGDYPESMKNNLSSLLPDFTESEKRLIRGTADFFALSFGPTLSFQLLDPNMKFRQLESPNLRQLLSWIDLEYNHPPIFIVENGWFVSGTTKRDDAKYMYYLKKFIMETLKAIRLDGVDVIGYTAWSLMDGFEWHRGYSIRRGLFYVDFLSQDKELLPKSSALFYQKLIEDNGFPPLPENQPLEGTFPCDFAWGVVDNYVQVSPLTKPSVGLLLPH
Take B1: the “other: antioxidant activity (raising of GSH/GSSG ratio)” value in data set [1] is “abolishes”. In addition, in data set [2], the “other: antioxidant activity (lowering of intracellular O2-)” value is listed as “decreases”.

B2: short-form Klotho (Skl): SklN285A (protein)
parent chain: B1 parent chain
As to B2, the “other: antioxidant activity (raising of GSH/GSSG ratio)” value in data set [1] is “abolishes”.

Source of the values: paper PMC5687603.
